T1: human CD22 on CD22-positive Burkitt's lymphoma cells (Daudi, Raji, Ramos) (human, UniProt P20273 20-847)
T1 construct: whole, on cells; also called CD22+ cells; CD22 positive cells
T1 sequence (looked up): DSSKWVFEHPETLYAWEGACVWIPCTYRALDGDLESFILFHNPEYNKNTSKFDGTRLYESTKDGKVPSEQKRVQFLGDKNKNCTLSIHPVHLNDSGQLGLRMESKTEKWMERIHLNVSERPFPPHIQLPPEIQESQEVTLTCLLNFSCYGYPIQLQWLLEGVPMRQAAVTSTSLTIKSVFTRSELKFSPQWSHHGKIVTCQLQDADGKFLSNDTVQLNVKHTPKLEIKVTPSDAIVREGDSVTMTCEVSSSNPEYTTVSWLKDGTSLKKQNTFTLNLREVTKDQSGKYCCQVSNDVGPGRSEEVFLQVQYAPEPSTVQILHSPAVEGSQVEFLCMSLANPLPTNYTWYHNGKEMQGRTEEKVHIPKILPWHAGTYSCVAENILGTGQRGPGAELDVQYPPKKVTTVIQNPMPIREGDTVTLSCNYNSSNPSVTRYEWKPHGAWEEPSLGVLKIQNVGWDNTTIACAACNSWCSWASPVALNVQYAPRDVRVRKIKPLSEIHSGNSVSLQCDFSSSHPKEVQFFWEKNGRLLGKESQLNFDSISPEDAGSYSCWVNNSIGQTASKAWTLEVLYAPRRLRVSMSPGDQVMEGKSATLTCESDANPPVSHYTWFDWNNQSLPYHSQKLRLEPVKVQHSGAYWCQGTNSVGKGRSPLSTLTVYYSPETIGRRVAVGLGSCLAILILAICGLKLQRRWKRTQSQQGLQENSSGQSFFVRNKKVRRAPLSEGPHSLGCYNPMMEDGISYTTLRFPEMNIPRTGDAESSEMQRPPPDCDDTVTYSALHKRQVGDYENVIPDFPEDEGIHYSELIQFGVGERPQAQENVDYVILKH

T2: human CD22 protein (recombinant CD22 extracellular domain) (human, UniProt P20273 20-687)
T2 construct: extracellular domain; also called SIGLEC-2
T2 sequence (looked up): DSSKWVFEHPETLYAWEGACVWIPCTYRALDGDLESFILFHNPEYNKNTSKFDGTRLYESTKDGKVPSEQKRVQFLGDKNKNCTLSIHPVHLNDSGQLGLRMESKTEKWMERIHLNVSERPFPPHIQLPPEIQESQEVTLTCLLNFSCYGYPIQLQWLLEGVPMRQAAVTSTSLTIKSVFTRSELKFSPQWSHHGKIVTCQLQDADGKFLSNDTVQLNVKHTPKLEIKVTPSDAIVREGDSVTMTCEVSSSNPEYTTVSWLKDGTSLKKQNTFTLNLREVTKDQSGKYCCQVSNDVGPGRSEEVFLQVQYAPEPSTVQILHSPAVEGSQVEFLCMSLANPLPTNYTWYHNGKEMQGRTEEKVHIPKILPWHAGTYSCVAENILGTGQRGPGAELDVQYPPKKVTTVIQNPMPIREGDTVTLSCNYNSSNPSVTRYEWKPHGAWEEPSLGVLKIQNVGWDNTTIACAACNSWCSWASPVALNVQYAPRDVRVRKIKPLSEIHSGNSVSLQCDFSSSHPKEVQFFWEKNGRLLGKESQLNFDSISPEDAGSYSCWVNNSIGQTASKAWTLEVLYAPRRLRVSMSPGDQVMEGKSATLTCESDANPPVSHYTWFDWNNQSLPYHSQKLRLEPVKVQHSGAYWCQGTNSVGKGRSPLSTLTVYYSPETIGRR


Tests used:
[1] = target: T1, human CD22 on CD22-positive Burkitt's …; test: cell binding, Daudi cells
Description: Binding to CD22 positive cells was assessed by flow cytometry (Guava easyCyte 8HT, EMD Millipore) using the Daudi cell line (ATCC). Briefly, 100,000 target cells were stained with a dilution series of purified UniAbs™ for 30 minutes at 4° C. Following incubation, the cells were washed twice with flow cytometry buffer (1×PBS, 1% BSA, 0.1% NaN_3) and stained with goat F(ab')2 anti-human IgG conjugated to R-phycoerythrin (PE) (Southern Biotech, cat. #2042-09) to detect cell-bound antibodies. After a 20-minute incubation at 4° C., the cells were washed twice with flow cytometry buffer and then mean fluorescence intensity (MFI) was measured by flow cytometry. EC50 values were calculated using GraphPad Prism 7. Binding to *cynomolgus* CD22 positive cells was determined using the same protocol with the following modifications: the target cells were from CHO cells stably transfected to express the extracellular domain of *cynomolgus* CD22 and each antibody was tested at a single concentration (~1.7 µg/mL) so EC50 values were not calculated.

[2] = target: T2, human CD22 protein (recombinant CD22 …); test: ELISA on recombinant CD22 extracellular domain and/or cell binding

Binder | binding result [1] | binding result [2]
anti-CD22 heavy chain-only antibody with the VH of SEQ ID NO: 81 (antibody, V domains shown, Heavy chain-only antibody (UniAb), human IgG) VH: QLQLQESGPGLVKPSETLSLTCTVSGGSIISSSYYWGWIRQPPGKGLEWIGSIYYSGSAYYHPSLKSRVTISIDTSKNQFSLKLSSVTAADTAVYYCARDDSSNWRSRGQGTLVTVSS | binds | binds
anti-CD22 heavy chain-only antibody with the VH of SEQ ID NO: 82 (antibody, V domains shown, Heavy chain-only antibody (UniAb), human IgG) VH: QLQLQESGPGLVKPSETLSLTCTVSGGSISSSSYYWGWIRQPPGKGLEWIGSIYYSGATYYNPSLKNRVTISVDTSRNQFSLNLSSVTAADTAVYYCTRDDSSNWRSRGQGTLVTVSS | binds | binds
anti-CD22 heavy chain-only antibody with the VH of SEQ ID NO: 83 (antibody, V domains shown, Heavy chain-only antibody (UniAb), human IgG) VH: QLQLQESGPGLVKPSETLSLTCTVSGDSISSGDYYWGWIRQPPGKGLEWIGHIYYSGATYYNPSLKNRVTISVDTSRNQSSLNLSSVTAADTAVYYCTREDSSNWRSRGQGTLVTVSS | binds | binds
anti-CD22 heavy chain-only antibody with the VH of SEQ ID NO: 84 (antibody, V domains shown, Heavy chain-only antibody (UniAb), human IgG) VH: QLQLQESGPGLVKPSETLSLTCTVSGGSINDNSHYWGWIRQPPGKGLEWIGHIYYSGATYYNPSLKNRVTISVDTSRNQFSLNLSSVTAADTAVYYCTREDSSSWRSRGQGTLVTVSS | binds | binds
anti-CD22 heavy chain-only antibody with the VH of SEQ ID NO: 77 (antibody, V domains shown, Heavy chain-only antibody (UniAb), human IgG) VH: QLQLQESGPGLVKPSETLSLTCTVSGGSISSSSYYWGWFRHPPGKGLDWIGSIHYSGSTYYNPSLKSRVTISVDTSRNQFSLNLSSVTAADTAVYYCTRDDSSNWRSRGQGTLVTVSS | binds | binds
anti-CD22 heavy chain-only antibody with the VH of SEQ ID NO: 55 (antibody, V domains shown, Heavy chain-only antibody (UniAb), human IgG) VH: QLQLQESGPGLVKPSETLSLTCAVYGGSFSGYYWGWIRQPPGKGLEWIGHIYYSGATYYNPSLKNRVTISVDTSRNQFSLNLSSVTAADTAVYYCTREDSSSWRSRGQGTLVTVSS | binds | binds
